Drawing on a protein production outcome set (Wang et al. 2014), this text covers protein production for 22 sequences.

The nature of this data set: label from the status in PepcDB records.

With “MLCLTKKRHGLRIEIPPMPILPARPLKYLLASIIALTAGGPDIAVAQAPDSVISQPGTAPASSFRTDRLPGGDVKPSDGVGVFDRMGAKLPDLPPEKDYKGPIDEAYGAYQRGYYLTAMDKALPRAQLGDPAAQTLIGEILSQGLGVKKDVKGAAFWYGKAAEGGDPAAMFKYALMLMEGQGVPRDKVKADDYMRKAAEAGNPSAEFNWAQIVVADNPGEKGLKLALPFYEKSAEQGIADSQYAVAQIYATLKDLPEEKKRLAREWMARAARAGFDTAELDLGIWLVNGVGGPKDYVKGFEWLKLAANGGNVVAQNKLAHLYINAIGTPPNPVEAAKWYVLSRRAGLADPSLEDFYLGIEDDQQKAAIDAANKFRRR”, the protein production result is recorded as “failed”.

For “MLCTYHAGQWFNNLLNFIDFIRLQFGKTANVLNLNDCLHIWLFSLEVRSLRDVVKMKLILSIMILSGCLLFILAGCARKNDYMPPAGATGEKIFKGACVQCHTPVNGKVMILRSEMANKEAIIERVTNGKGFGMPAFPNLTGDSVQNLAEYVLENSVTR”, the protein production entry is on record as “failed”.

Turning to “MLDAILSNYLYYPSILAFLFGVLMGAKYRHKIGNIFGYLILTVVIAYFLKAFPYYDLLPLSCSYLSAVIGIIIGNRLFGGKMI”, the protein production result is “failed”.

Turning to “MLDCIVVGAGPAGGSAAYHLARRDRQVLLLEQAQLPRQKACAGGVSPQVARWFDCDLRSVVDHGVDRLRFTWKLGDPVEAELPSEEPFWMVRRDRFDHFLVEQAANLGARIEDGAAVTAVSAEGDGWLVTVGDRAYRSRTLIAADGARGPLAQWLGFPSQKRRYAQACELDVPLPARPDSTAHFEFGLVRNGYIWVFPKSDGYSIGIGTFRGNDATDFRGLLETYLAGFGVSADLDRIVPHPLCVWDGSQPLHRGSALLVGEAASLTDPFTAEGIRPALLSGMRAAEAIDRAIAGDRNALAGYSRTIQQEWGDSMAWAKRISSVFYRVPNLGYQIGIKRPTAPQRMAQILVGELDYSDIATRVIRRLTTGFLPGMR”, the protein production entry is listed as “failed”.

Regarding “MLDHFGSDPVFSPEQVLENRGRVAIFIDGSNLFYAALQLGIEIDYSKLLYRLTGGSRLLRSFFYTGVDRANEKQQGFLLWMRRNGYRVIAKDLVQLPDGSKKANLDVEIAVDMMALVGSYDTAVLVSGDGDLAYAVDAVSYRGARVEVVSLRSMTSDSLINVADRYIDLEQIQTDIQKLHRGQFSEPRLMEDRGGGTIELPSHE”, the protein production result is reported as “failed”.

Regarding “MLDLFGYKRRKTSVAQIGDTPLGGDFPIRIQSMANVSTMDTQASVDQAARIIDAGADYVRFTAQGVREAVNLQHIHAGLCRLGYHIPLVADIHFSPKAAEEALLHVEKVRINPGNFVEMKSGGNLTEEEAFDLGHKAVRERFGSFVEDAKRLGRAIRIGVNHGSLSERMLTRYGDTAEGMVQSCMEYLDVCHEHEFDDVVISMKASNTLVMTAAVRLLVERMDAADMHYPLHIGVTEAGDGEDGRIKSAVGIGSLLADGIGDTIRVSLSEDPEHEIPVARKLLAYIEKRNGHPSVAVPQPDRYDRDKLRRQETYAVGDFIGSKHIPIVISDRRQGDDHFDTELLPDIVLGADGRYYREDMLLENIVFRSIRQDDLTDDCLQTIEAISDTVIILESVGINPVAEWRAMLHRLELAGCRCPVILHRRYDCTDLEDLQLQASADMGAILLEGRGNGLMITADKLPSVAVNHLAFGILQATR”, the protein production result is “failed”.

In the case of “MLDNAIPQGFEDAVELRRKNRETVVKYMNTKGQDRLRRHELFVEDGCGGLWTTDTGSPIVIRGKDKLAEHAVWSLKCFPDWEWYNIKVFETDDPNHFWVECDGHGKILFPGYPEGYYENHFLHSFELDDGKIKRNREFMNVFQQLRALSIPVPQIKREGIPT”, the protein production entry is recorded as “not failed”.

Turning to “MLDPARSYDLIGDVHGCALTLEHLLDRLGYHKQAGVWRHPSRMAVFLGDIIDRGPRIRESLHIVHDMVEAGQALCIMGNHEFNALGWSTPAAEGSGKQFVREHTPRHARLIHETLTQFEQHPGDWHDFLQWFYELPLFVDAGRFRVVHACWDAGLIAPLRQQYPNGCIDREFLQSAAVPDSFACTAFDRLLRGTDMRLPHGLTMTSGDGLTRAFFRTKFWEDDPQTYGDIVFQPDALPEPVARTPLSPAEKNSLLRYGAEEPMLFVGHYWRSGKPAPIRPNLACLDYSAVLYGKLAAYRLDQETRLDPNKFVWVDVERPEVVRLEHHHHHH”, the protein production result is “failed”.

Regarding “MLDPHSRMPLYHQIESHLREVIRSGKWQAGEAIPPERLLIEQYGVSRITIRQALANLVAAGLLYRKHGRGTFVAGAKERPITESLANLTGHLEELQLRGLDPRVRVLALETRPMIAEVAEALQRSPGAEGWYLYRIVTVEQQPLMLSTVWLPCDLGVELNEELLKQHGMALLLTHNGIAPLRGSQRIGAMSAGPEEARLLGVRAGEAVLRVSRVIHGAADRPLVWFRTLYRSDRYEYEVELKRGRPHA”, the protein production result is reported as “failed”.

In the case of “MLDRLLGRVHDTKHAAPILRGYLWWGLLLRAVLLLALGTLLVVEGNVLAEWLLTVRPPALPQEDVEELTAVSYTVIVVLLMVGTGARWQLLRRLEAAEAVPESAPSSAEEAPPLGR”, the protein production entry was “failed”.

For “MLDSFKSALQQFAASIRFKFKSLRSYKYVPQIDSRDCGVAALASIAKYYGSDYSLAHLRELAKTSKEGTTALGIVEAAKKMKFETRAIKADMSLFDVEDIPYPFIVHIVKDGKLQHYYVVYGQEKEKVIIGDPDPTVKIATPVQIAICRRMDRCCYFSGT”, the protein production entry is given as “failed”.

As to “MLDSHLHPRLKPLLNAVAGALDRPGISPDGLTLVGFAIGVLALPFLALGWYGAALAAILLNRLLDGLDGALARRRGLTDAGGFLDIALDFLFYALVPFGFILADPLNNALAGGWLLFAFIGTGSSFLAFAALAARHQIANPGYAHKSLYYLGGLTEGTETILLFVLGCLFPAHFAWLAWLFGALCWLTTATRICSGYQTLKRVTTTA”, the protein production result was “failed”.

For “MLDVAIIGGGPAGLSAGLYATRGGLKNVVMFEKGMPGGQITSSSEIENYPGVAQVMDGISFMAPWSEQCMRFGLKHEMVGVEQILKNSDGSFTIKLEGGKTELAKAVIVCTGSAPKKAGFKGEDEFFGKGVSTCATCDGFFYKNKEVAVLGGGDTALEEALYLANICSKIYLIHRRDEFRAAPSTVEKVKKNEKIELITSASVDEVYGDKMGVAGVKVKLKDGSIRDLNVPGIFTFVGLNVRNEILKQDDSKFLCNMEEGGQVSVDLKMQTSVAGLFAAGDLRKDAPKQVICAAGDGAVAALSAMAYIESLH”, the protein production entry is “not failed”.

In the case of “MLEAPLLSICIPAYNRPNWLQRGLESIAVGEGSDIEIVITDDSDTDQGQAIASEVLKNWSGSWCYEHHQQPLGMAQNWNRAIQWATGQYVMVLHDDDFFLPQGLGLLVNKLRQLGSSSPVLLFGVRVVDAQERVVKRQGFRQDKLLPPHDALIRLFSDSSFVRFPAMVIRRDLFTEVGYFNPDWREPCDLEMWMRLFARYGVYCCREATVAYRVHGQALTMGSFHGETVNILLRLFGELEKLNILTTRDIEFCKGLFFHQYILAGAWRQLRRRRWREFKQVMGLFDLPELKSLSCPVKWRFLRGLFSLTLEHHHHHH”, the protein production result is given as “failed”.

For “MLEGESAPEPVIEISKLELTDYVKCNLPPEVIKYYESELELLTQEIKSEKKNPAFAYCRRGAIYRKLGKLQSAMNDLQETIFVEPLFLNAYWHRHFIYLFQDKINDALDDLNFITKYNKNHAEAYLSKAEIFREKNDITLAILNYSQAIKCRPKDASLYFKRGEMYEKTNKVLAIDDFSKGLDQAVTHVTESAQIFPPLLGQNDCIYYDPKRSDALWKRGMFYFENENWTGAVYDFTSLLKLEPHNSQARTNRGRAYFKRNLFKQATEDFSAAIHSDPNNWLALYYRACLFRKCSPQRALQDYSVSVSVSVLCSPGFKLFIYKVNGMSEFTTSFHEFVNCDCHVLINDGYDNLNCFLHRGILYTELKFWMLAVCDFETVVTLERIKAIISSRGQYLLMMKSYDLAKLTIFQVAEMNKGVIELSPIQEALIYSFCENHDKAIHVLEGVIANKPDISTYALLAKAQMKAKRIKESVRLFKKALELYTFSDKGPAATSVSADCLYNLGLCYMEEGNFQMNYKLAITDLTTAVGMDKNSYTAFYNRALCYTKIKKHEMALRDYGIVLLLQAGETIALNTLVNRGLIYTELEQYGFALEDFKEASMISETSVKLCQATAMCHHRIKEFQGAVEFFTRAIKINPRYLDAYIGRGNSYMEYEQNKAMIQAQKDFLRALHLDPSNLKARISLGYNLQAQGKFQKAWQHFTIGIEANPKNYLAYEGRAVVCLQMSNYFAAMQDINCAIKINSTAEFLTNRGVIHEFMGQQQNAMADYQAAISLDPNYSLAYFNAGNIYLHHRQFSQATDYFSTALKLNPENECALMNRAVTNSVLKKYEEAEKDFSHAMELCPHWAALYFNRASFYVYLKKYELAEEDLDRALSLKPDDAIMYNLRAQVRGKIGLIEEAMCDYNQALDLEEYSKAM”, the protein production result is reported as “failed”.

Turning to “MLEHFRAGWAKVMNPIADALLRAHVTPDVVTWIGTIGAVLMALICFPQGWLWQGPWLVTLFIFSDSLDGNMARKLGRHSQWGSFLDSTLDRFGDAAIFTGVALYFAGPGNSVLWTAMACAALVFGMATSYVRAKAESLALEAKVGIATRADRLLVSLVAIEITGLARVGAFPHWCVVALPIALCYLTLAGAITVVQRMVAVRRACES”, the protein production result is given as “failed”.

Turning to “MLEKELSFADLSISLSELYEAMGYADAVPDEAVEKEVRGVLGRVEAVTSPRFCFFISGGELDESKDSLSVGDTCFSIGKIITRQLRGSESFAFFAATAGTGFERFQHTLQQEGDMVKVYIADAIGSVIAEKTADCMEIALDEYIRDRGWRHTNRFSPGYCGWHVSEQKKLFPLFPSAEPCGIRLTDSGLMLPIKSVSGVIGLGDGVRKLEYTCGLCTYDRCYRRKQRGLEHHHHHH”, the protein production result was “not failed”.

Consider “MLEKLIERVLFATRWLLAPLCIAMSLVLVVLGYVFMKELWHMLSHLNTISETDLVLSALGLVDLLFMAGLVLMVLLASYESFVSKLDKVDASEITWLKHTDFNALKLKVSLSIVAISAIFLLKRYMSLEDVLSSIPKDTPLSHNPIFWQVVIHLVFVCSALLAAVTNNIAFSQNKAH”, for which the protein production result is listed as “failed”.

Take “MLEKVFQEITNKRKFFASSSTGEQFENQFRNELKKHFSEINGDLTEELSHIEEKPNKEIKTTFNQLKKQVLEKNHPHTLKNPFSNLTSHFLYQPFGSQNYPDFLVFIFDYVVGIEIKFSKNDKGEKNLQTSRPMWNSNLPKPNAIYVYGVANANITFFKGSDILSYETREVLLKYFDILDKDERSLKNALKDLENPFGFAPYIRKAYEHKRNFLTTTRLKASFRPTTF”: the protein production entry is “failed”.

With “MLENIRIVLIETSHSGNIGSAARAMKTMGLTQLCLVSPKSVDEQSYALSAGAENIVKNARVVDSFDEAVDDCPLVIGTSARLRHLQNTLIEPRECAEKVVAYKGKIAIVFGRERIGLTNEELLKCHYHLNIPANPDYSSLNLAMAVQLVSYELRMAFLVQNNKKNSLSLIEKNYPTTDQLAYFFDYTERIYQSLGFIQNQGVMRKLKRLYYRAKLEKNELNILNGMLSAVEKRIDLTKEDN”, the protein production entry is “not failed”.

Regarding “MLEQGLDYVVKLAKSKKQILDANPMQYFIRAALAGIYIGFIIVLCFKLGNFFHIADSPATYLAASMFFGIALVLIIYGGAELFTGNTMYFTVATLRKETTISDTLRNWVACYAGNLAGALFFALLFYATGIFEAIDHGHLMNKVVEGKMNTPTMQLFFKAILCNWLVCLACFLPSQVKGDTAKIMIMMLLVFTFFLSGYEHSIANLSLFALSLVSPHPETISFAGAIHNLIPVTIGNIIGGSVFVGMVYHYLTKKVPDVKQEETELVAAQQEEIIPLQAHMKH”, the protein production result is reported as “failed”.

For “MLEQILLGTYTRRASQGIYKIALDTTQGRLTEATLLLEETSPTYLALSQKGELFSVTSVDGEGGTAAYQPEMDHFNLLNKVTEEGAPPCYVAVDENRQLVYAANYHQGIVHVYRILEDGSLEDADKVIHTEPTGPHENQNNAHVHYTDLTPDQRLVVCDLGTDRVYTYNVSLDGKLSEIAQFVTEPGTGPRHLVFHPTKSLAYLFGELDSTVSVLSYDETDGSFTELQKVSTLPADYDAFNGGAAIRISSDGRFLYASNRGHNSIAVYAVSENGEAIERIQLISTEGDIPRDFDLDPSEDFIVVANQDSDNLTLYRRNQETGLLEMIQKDVAVPECVCVLFVLEHHHHHH”, the protein production result is recorded as “not failed”.
